Test: soluble on expression in E. coli; label from the status in PepcDB or PDB records

Soluble on expression in E. coli, not soluble:
MGSDKIHHHHHHMLWYDSRAQRLRERSAVWAQNQKTDPDFDGLPPKYAEELQKNILGTVVLPGDPEYDTDRMLSNPRFSAYPQVIVYCEVETDVAECLRVARALSMAVVVRSGGHSTAGFSSQNGFLIDVSRMNDVCISPEALRAWVGPGTNFGKFNAKLLPYDLHTPGGACPDVCVGGYMQGGGYGFTARIFGMNCDQVEEIRVMMTDGRIVHANAELNPDLFWAVRGGTGSNFGVLLGVKYRLYRGSTFAGFSVRWSMQTDAGVQDTATSLAWLQENFMRTGAPDTMGYQMIWAFEGPEGQAKEPVLLMRGMYRGTREELQEKLAPVLALPGATLQAIYDPQQYIDLNRILLSEPYEVPEFPADMTPMPPPEAKISRYVAKPIDAAGWKALLDYFRTSPSPYTIAAMEIYGGAIARMPKGENAFFHRDVYCDLFFDVFWLTEQEKETMLAFIAGWEAAFAPHWTGQSYQNYPSPDNPGFADEYWGDTYWLLRLIKHKYDPINLLRFPQSIQPLEWHPPGPGFPPGFRGFEDPIQAIAG
MEKRRVILVTDGDEFACRAIERVAAEIGGRCISRSQGNPTKLSGEQLVELILQTPHDPVFVMFDDCGALGEGAGEQALRYVATHEQIQVLGALAVASNTHQHEWTKVHVSIDRDGVMTEYGVDKEGFRDLEIGRINGDTVYCLDRLNIPLIVGIGDIGKMGYRDHAKYGAPITRKAVELILERSGGHAGKRKETESADREAAR
MVRSMLYATDLGLYAPYVMQHALALARTFDAGLYVVHVVEPMGLFAESVLQSYLGEEALQELHGKGAHAFMEGIEQRMLDGFREELGEGHSDLSLIRTVRVVQGEPASVIIEQAHKLEVDLLVLGRHSASAQEGASIGRTAARILQSSGVPVYMVPIMSKALCQKGC
AACKFLRRKCTSDCVFAPYFPPEEPTKFANVHRIFGASNVSKILHEVAPHQREDAVNSLAYEAEARLKDPVYGCVGAISVLQRQVLRLQRELEETNADLMRYAGCLGGETTSAYGGRRG
MGSDKIHHHHHHSSSDLKDLLRERIAAKYTIDDLKDTGKKIRKTAPIESLAAVSKIDRDPVQFINSVEQNLTKSLLPMRHSRMGASQAAFFRGTAELMAYDLQQGEKSGINLLIDGDAHLQNFGFYASPERNLLFDLNDFDEAQINSFEFDIKRLLTSVYLLGDQQGFDADKLDELVQTDASIYRKTLRDLFKVGALDRFYQSTEVNHLVQSIPGAEDSALLSKFVKKATKRNNDSVIKKYTTTIDGNMRFKDDPPSSVRLDKATYQAIFDGFTQYRKSTRPDILVLLSEYRITDIIHHSVGIGSFGTNCYLVLLSGLGGSHLVLQVKEALPPRPELIPNTERITLQQEVSQGQRIIASQMILQKASDPFLGWFNVGDKSYYVRQFRDMKGSVDLEELTFPEFQYYTQITTYLLAMAHAQTPQAAVVTGYLDKSFDSAVQRWSKWYLNQVKADYSAFMRAVQTHMLA
MSLLRETLESGKFAVTTEMAPPKGTDLSHLIECAKPLVGRVHAANVTDFQSAVMRATSLATCKLLKDAGLEPVIQITGRDRNRIAIQGEMLSAGVFGINNLLALTGDHTSVGDHPQAKGVFDLDSVGILQTAETLMAGTDMAGNKLKGSPDFYLGASVTPEYSPIEVQLLKMKKKIKAGAKFFQTQALYDINTMRKFRELTRDMDCKVLAGIVPLKSPGMAKFMTANVPGIFVPDEQIERLRAAGKENWVSEGIKMAGELIKQLKEEDLCDGVHIMAIGAEENIPAILDAAGL
MAQDGDRHHIFVSAPPPPPPSSSIPAPSQPNRLEKEPLIDEETDMIDESRATYWKGCEFLKASGLYSSKCELV
MIRWMNEPLWPFIERKKSMRNLVKYVGIGLLVMGLAACDDKDTNATAQGSVAESNATGNPVNLLDGKLSFSLPADMTDQSGKLGTQANNMHVWSDATGQKAVIVIMGDDPKEDLAVLAKRLEDQQRSRDPQLQVVTNKAIELKGHKMQQLDSIISAKGQTAYSSVILGNVGNQLLTMQITLPADDQQKAQTTAENIINTLVIQ
MGSDKIHHHHHHMLKIDNLTKTLENKKVISGISFSLKPSQIVGLIGRNGVGKTTLFRLISGEYVPDQGRVTSDESADARSEIFYLDSPDNFTNAFTANQLARIFKVSYPQLDIDWFKNLLKTNNLSLNKKLSGMSKGQRGLILAISAITSKSKYIFLDEPLDGLDLIIRDQVKQMLITAVSNSDTSVMIASHNLEELDFLADRIILLKNGKIEKDYLPGEELKTANVAKLQMVIEGELPKVVSECGHILEKRGHLYVVLFKDYNSKVASRIKRTKAQYIEQLPVNSDDIFRATFEEDYRLRQSAGKRTNK
MPEVVFYPQNKSINVEEGTTILQAARSAGVIIESPCNGTGTCGKCKVRLDEKSLPNVLAKSRHYLSKEEEEQGYVLACETQITGDIKVELGENKQNGTLKILSRGHSFNIDLKPFIRKEYFVHEDVTKVFAGKEQLGIEAGDTTKENYGAVVDIGTTTLVASIVNLNNGDEIGTSSALNPQAVHAQDVLSRIKFSSDADGLKVMHSELTDKINSMIGKIALRAGISKEHIYEIVFSGNTCMLHLASNTCPESLGKYPYTPKISGAAYLDAAKYNIDISPFGIIYLPPIISAYVGADIVSGILASQLHEKDGVILFVDIGTNGEMVLASCGNLSATSTAAGPAFEGMNITCGMRAGEAAIEFFEIEEQGSINIKVIGETEAAGICGSGLLDMVGEFAAHGVIKKNGQFIDPESENVLHPKLAERLVRQDGKWIFKVTDKVFLSQKDIRQVQLAKGAVRAGIEFLLENKGVRASDVDKVLIAGSFGYHLREKSLINIGLLPKEFEGKVEFVGNTSLSGAKAFLLNQTYREKMKETVKSVEVLELANYKDFDRVFVRCLSFLEHHHHHH

Soluble on expression in E. coli, soluble:
MSSERACMLCGIVQTTNEFNRDGCPNCQGIFEEAGVSTMECTSPSFEGLVGMCKPTKSWVAKWLSVDHSIAGMYAIKVDGRLPAEVVELLPHYKPRDGSGSATIWGVRCRPGKEKELIRKLLKKKFNLDRAMGKKKLKILSIFQRDNYTGRIYIEAPKQSVIEKFCNGVPDIYISQKLLIPVQELPLLLKPNLEHHHHHH
MSLDSRLPAFRNLSPAARLDHIGQLLGLSHDDVSLLANAGALPMDIANGMIENVIGTFELPYAVASNFQINGRDVLVPLVVEEPSIVAAASYMAKLARANGGFTTSSSAPLMHAQVQIVGIQDPLNARLSLLRRKDEIIELANRKDQLLNSLGGGCRDIEVHTFADTPRGPMLVAHLIVDVRDAMGANTVNTMAEAVAPLMEAITGGQVRLRILSNLADLRLARAQVRITPQQLETAEFSGEAVIEGILDAYAFAAVDPYRAATHNKGIMNGIDPLIVATGNDWRAVEAGAHAYACRSGHYGSLTTWEKDNNGHLVGTLEMPMPVGLVGGATKTHPLAQLSLRILGVKTAQALAEIAVAVGLAQNLGAMRALATEGIQRGHMALHARNIAVVAGARGDEVDWVARQLVEYHDVRADRAVALLKQKRGQ
MSLRKEFPLMNRLKELRKEKNITLVELSEELGIPRSTLNRYENEDSEPKQETWEKLADYYGVSTAYLMGISNQKVSEEKALTAAKKVYQVYLSDDDLGKEIRKALMYFNKNDLDSVLKQAMQQYFTIPAVEWNTEFQSLKNTGFLYSWLEGYLVDRYRKEVKTNHNLITNTYYSIPSIDDVNEYGIFSDEIQIPLTEDFKQIFKVEDLSTKTHEEIKKLFKSDSTLIAYSYESSVDDKLKDDINMILDNARSEILNLKEKYPDKPSRIEQTTVLISKDEDTSFWSRNGSNDYIDELNLSEETKKLFVHLGSVFIEEKKRKSKAKEEGGSHHHHHH
MSLKGYYSNKISLEDLNKNIEDKKEQTIYFYQTSCVHCQKVSPIVVPLAKDLNVDMKVIDIENLNEPWDKYNIQGTPTIIHFKDGKEVSRISGEQSKDKFKEWFEQTKKEGHHHHHH
MTDDSAVESKQKKSKIRKGHWIPVVAGFLRKDGKILVGQRPENNSLAGQWEFPGGKIENGETPEEALARELNEELGIEAEVGELKLACTHSYGDVGILILFYEILYWKGEPRAKHHMMLEWIHPEELKHRNIPEANRKILHKIYKALGLEWRK

Source: the DeepSol protein solubility set
